Laboratory results: article PMC6858856
Read-outs that look alike come from different tables or passages of the source.

Experiments:
[1] = biological target: FANCB-FAAP100 heterodimer (Gallus gallus) (Gallus gallus); test: cryo-EM structure
[2] = biological target: FANCB-FAAP100 heterodimer (Gallus gallus) (Gallus gallus); test: cryo-EM structure; remark: listed apart in the source

- stoichiometry N [1]: 2
- stoichiometry N [2]: 2
Substance: FANCB-FAAP100 heterodimer (Gallus gallus) (complex)
